# Results taken from patent US20200109188A1 (AstraZeneca / MedImmune, published 2020).
# Experiments:
# Experiment in all cases: cell-based or functional assay
# [1] = biological target: HA of ca A/New Caledonia/20/99 (H1N1) virus (influenza A virus)
# [2] = biological target: HA of ca A/Hong Kong/213/03 (H5N1) virus (influenza A virus)
# [3] = biological target: HA of A/Kawasaki/9/86 (H1N1) virus (influenza A virus)
# [4] = biological target: HA of ca A/Sydney/5/97 (H3N2) virus (influenza A virus)
# [5] = biological target: HA of ca A/Beijing/262/95 (H1N1) virus (influenza A virus)
# [6] = biological target: HA of ca A/Netherlands/219/03 (H7N7) virus (influenza A virus)
# [7] = biological target: HA of ca A/Texas/36/91 (H1N1) virus (influenza A virus)
# [8] = biological target: HA of A/Fort Monmouth/1/47 (H1N1) virus (influenza A virus)
# [9] = biological target: HA of A/Victoria/3/75 (H3N2) virus (influenza A virus, UniProt P03435 17-567)
# [10] = biological target: HA of A/Wisconsin/67/05 (H3N2) virus (influenza A virus)
# [11] = biological target: HA of ca A/Brit. Columbia/CN-6/04 (H7N3-LP) virus (influenza A virus)
# [12] = biological target: HA of ca A/chicken/Hong Kong/G9/97 (H9N2) virus (influenza A virus)
# [13] = biological target: HA of ca A/teal/Hong Kong/W312/97 (H6N1) virus (influenza A virus)
# Sequence of HA of A/Victoria/3/75 (H3N2) virus (P03435 17-567 limits assumed): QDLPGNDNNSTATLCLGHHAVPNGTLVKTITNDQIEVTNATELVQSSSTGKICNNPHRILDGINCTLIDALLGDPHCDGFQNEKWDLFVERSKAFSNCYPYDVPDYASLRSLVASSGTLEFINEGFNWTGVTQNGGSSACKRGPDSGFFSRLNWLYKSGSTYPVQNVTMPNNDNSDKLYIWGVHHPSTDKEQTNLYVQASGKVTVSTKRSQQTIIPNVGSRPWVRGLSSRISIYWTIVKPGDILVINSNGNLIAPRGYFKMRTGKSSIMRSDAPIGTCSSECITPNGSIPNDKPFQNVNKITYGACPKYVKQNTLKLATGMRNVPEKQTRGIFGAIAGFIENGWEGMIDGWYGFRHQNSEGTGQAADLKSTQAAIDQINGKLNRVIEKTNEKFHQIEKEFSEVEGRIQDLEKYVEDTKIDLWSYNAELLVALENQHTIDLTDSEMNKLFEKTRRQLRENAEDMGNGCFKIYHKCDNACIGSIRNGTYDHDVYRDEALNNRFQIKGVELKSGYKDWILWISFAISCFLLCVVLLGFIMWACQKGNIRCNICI
binder,measurement,setting,value
"Antibody 3 (antibody, V domains shown) VH: QVQLQESGPGLVKPSQTLSLTCAISGDSVSSNNAVWNWIRQSPSRGLEWLGRTYYRSKWYNDYAESVKSRITVNPDTSKNQFSLHLKSVTPEDTAVFYCVRSGHITVFGVNVDAFDMWGQGTMVTVSS VL: DIQMTQSPSSLSASVGDRVTITCRTSQSLSSYLHWYQQKPGKAPKLLIYAASSLQSGVPSRFSGSGSGTDFTLTISSLQPEDFATYYCQQSRTFGQGTKVEIK","Neutralization IC50, H1-Ncal99",[1],0.79 µg/mL
same,"Neutralization IC50, H5-HK03",[2],4.64 µg/mL
same,"Neutralization IC50, H1-Kaw86",[3],0.58 µg/mL
same,"Neutralization IC50, H3-Syd97",[4],3.75 µg/mL
same,"Neutralization IC50, H1-BJ95",[5],3.41 µg/mL
same,"Neutralization IC50, H7-NLD03",[6],4.78 µg/mL
same,"Neutralization IC50, H1-TX91",[7],0.6 µg/mL
same,"Neutralization IC50, H1-FM47",[8],0.92 µg/mL
same,"Neutralization IC50, H3-Vic75",[9],0.75 µg/mL
same,"Neutralization IC50, H3-Wl05",[10],2.44 µg/mL
same,"Neutralization IC50, H7-BC04",[11],4.72 µg/mL
same,"Neutralization IC50, H9-HK97",[12],1.79 µg/mL
same,"Neutralization IC50, H6-HK97",[13],1.77 µg/mL
